Where two headings read alike, the source gives them in different places.
Legend:
[1] = target: Clostridium perfringens enterotoxin (CPE) (Clostridium perfringens) (UniProt P01558); settings: cited from earlier work
[2] = target: Clostridium perfringens enterotoxin (CPE) (Clostridium perfringens) (UniProt P01558); settings: cited from earlier work; remark: listed apart in the source
[3] = target: T1, recombinant Clostridium perfringens enterotoxin (CPE) (aa 26–319, wild type) (Clostridium perfringens, UniProt P01558 26-319); assay: SPR; […], multi-cycle, 120 s association, 1200 s dissociation; HBS-EP+ pH 7.4, 25 °C; Biacore T200; 1:1 Langmuir fit; settings: both partners purified
T1 construct: also called CPE 26–319; holo-CPE
T1 sequence: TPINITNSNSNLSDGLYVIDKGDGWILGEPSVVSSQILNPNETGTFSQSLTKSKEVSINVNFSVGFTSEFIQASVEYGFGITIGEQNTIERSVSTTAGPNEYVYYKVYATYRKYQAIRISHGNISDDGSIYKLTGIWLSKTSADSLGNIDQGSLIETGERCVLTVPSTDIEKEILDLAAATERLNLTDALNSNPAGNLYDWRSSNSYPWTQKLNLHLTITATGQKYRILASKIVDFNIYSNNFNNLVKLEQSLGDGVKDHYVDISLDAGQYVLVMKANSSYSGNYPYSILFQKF

Molecule: claudin-4 (from UniProt O14493)
- Kd [1]: 3.4 nM

Molecule: claudin-4 (from UniProt O35054)
- Kd [2]: 9 nM

B1: GST human claudin-4 fusion protein (GST-ShCLDN4H8) (receptor)
chain: MASMGLQVMGIALAVLGWLAVMLCCALPMWRVTAFIGSNIVTSQTIWEGLWMNCVVQSTGQMQCKVYDSLLALPQDLQAARALVIISIIVAALGVLLSVVGGKCTNCLEDESAKAKTMIVAGVVFLLAGLMVIVPVSWTAHNIIQDFYNPLVASGQKREMGASLYVGWAASGLLLLGGGLLCCNCPPRTDKPYSAKYSAARSAAASNYV
- Kd [3]: 0.38 nM
- koff [3]: 0.00021 s⁻¹
- kon [3]: 560000 M⁻¹ s⁻¹

Source: publication PMC8068247, “Innovative and Highly Sensitive Detection of Clostridium perfringens Enterotoxin Based on Receptor Interaction and Monoclonal Antibodies” (Toxins, 2021)
